Among the data in the RNAGym collection of RNA variant scans (doi:10.7554/elife.90254) are self-cleavage values, retold here.

Sequences and labels used below:
B1: LINE1-mini (parent)
chain: GGCAGAGCUCAACACAGCGUGGCAAAGUGGCUGUGGCUAGACUGCC

The data set covers variants of B1. The data set can be described thus: self-cleavage, relative activity (ratio to wild type); higher = more cleavage; in vitro, sequencing; the parent is a self-cleaving ribozyme.
As for G35C A41U, the self-cleavage was 0.13.

G35C A41C: the self-cleavage amounted to 0.06.

On to G35C A41G, for which the self-cleavage was 0.08.

Consider G35U A41G, for which the self-cleavage was found to be 0.08.

In the case of G35U A41U, the self-cleavage stood at 0.14.

Regarding G35U A41C, the self-cleavage was found to be 0.08.

In the case of G33U G36C, the self-cleavage amounted to 0.05.

For G33U G36A, the self-cleavage was determined as 0.08.

In the case of G33U G36U, the self-cleavage turned out to be 0.05.

As to G36U A39G, the self-cleavage was 0.05.

With G36U A39U, the self-cleavage was determined as 0.07.

As to G36U A39C, the self-cleavage came out at 0.08.

Take U34C C37U: the self-cleavage came to 0.05.

Take U34C C37G: the self-cleavage was found to be 0.04.

Take U34C C37A: the self-cleavage worked out at 0.09.

As for G36C U43A, the self-cleavage came to 0.08.

With G36C U43G, the self-cleavage stood at 0.

As to G36C U43C, the self-cleavage turned out to be 0.04.

G36C G44A: the self-cleavage was found to be 0.04.

G36C G44U: the self-cleavage was 0.08.

Consider G36C G44C, for which the self-cleavage was 0.11.

Regarding G35U C42G, the self-cleavage turned out to be 0.05.

Turning to G35U C42A, the self-cleavage worked out at 0.08.

For the variant G35U C42U, the self-cleavage came to 0.11.

In the case of G33U U34A, the self-cleavage was determined as 0.08.

On to G33U U34G, for which the self-cleavage was found to be 0.05.

As for G33U U34C, the self-cleavage was 0.23.

Consider G35A A39U, for which the self-cleavage came to 0.12.

For the variant G35A A39C, the self-cleavage was 0.08.

As to G35A A39G, the self-cleavage was found to be 0.07.

Take G36A A39G: the self-cleavage stood at 0.39.

Take G36A A39C: the self-cleavage came out at 0.27.

As for G36A A39U, the self-cleavage was 0.22.

As for G35U C46U, the self-cleavage is 0.1.

In the case of G35U C46A, the self-cleavage was determined as 0.11.

With G35U C46G, the self-cleavage was 0.09.

With G35U A39G, the self-cleavage amounted to 0.22.

As for G35U A39U, the self-cleavage came out at 0.1.

In the case of G35U A39C, the self-cleavage worked out at 0.11.

Turning to U34G G40C, the self-cleavage was 0.07.

U34G G40U: the self-cleavage worked out at 0.05.

For the variant U34G G40A, the self-cleavage amounted to 0.03.

For the variant G35A U43C, the self-cleavage worked out at 0.07.

As to G35A U43G, the self-cleavage was determined as 0.03.

For G35A U43A, the self-cleavage was determined as 0.09.

Regarding U34G U38C, the self-cleavage came out at 0.16.

For U34G U38A, the self-cleavage came to 0.3.

As to U34G U38G, the self-cleavage came out at 0.03.

With G35C U43G, the self-cleavage stood at 0.09.

Consider G35C U43A, for which the self-cleavage was determined as 0.11.

Turning to G35C U43C, the self-cleavage came out at 0.12.

Take G35A G40A: the self-cleavage turned out to be 0.07.

G35A G40U: the self-cleavage amounted to 0.05.

Take G35A G40C: the self-cleavage was 0.08.

As for G36C A41C, the self-cleavage stood at 0.05.

Consider G36C A41U, for which the self-cleavage came out at 0.14.

Turning to G36C A41G, the self-cleavage worked out at 0.11.

Regarding G33U G44C, the self-cleavage came to 0.06.

Take G33U G44A: the self-cleavage was 0.07.

Consider G33U G44U, for which the self-cleavage is 0.07.

Regarding G35A G36U, the self-cleavage amounted to 0.19.

On to G35A G36C, for which the self-cleavage worked out at 0.17.

For the variant G35A G36A, the self-cleavage came to 0.17.

Consider G33U A39C, for which the self-cleavage came out at 0.07.

As for G33U A39U, the self-cleavage came out at 0.15.

Turning to G33U A39G, the self-cleavage stood at 0.12.

Regarding G35A C46U, the self-cleavage came to 0.1.

G35A C46G: the self-cleavage was 0.15.

Regarding G35A C46A, the self-cleavage was determined as 0.11.

For the variant G33U, the self-cleavage came to 0.11.

For U34A C46A, the self-cleavage amounted to 0.06.

Consider U34A C46U, for which the self-cleavage was determined as 0.09.

With U34A C46G, the self-cleavage was found to be 0.08.

Consider G33U G35C, for which the self-cleavage was determined as 0.06.

G33U G35A: the self-cleavage amounted to 0.08.

For the variant G33U G35U, the self-cleavage is 0.11.

G33U U43A: the self-cleavage was found to be 0.12.

Turning to G33U U43G, the self-cleavage was determined as 0.02.

With G33U U43C, the self-cleavage was found to be 0.08.

As to G33C U38G, the self-cleavage came out at 0.03.

As for U34C G35A, the self-cleavage came to 0.05.

On to U34C G35U, for which the self-cleavage came to 0.18.

Consider U34C G35C, for which the self-cleavage is 0.06.

Take G36C C37A: the self-cleavage is 0.1.

For the variant G36C C37U, the self-cleavage is 0.06.

Consider G36C C37G, for which the self-cleavage was determined as 0.07.

Consider G36A A41C, for which the self-cleavage worked out at 0.05.

In the case of G36A A41U, the self-cleavage is 0.44.

With G36A A41G, the self-cleavage is 0.2.

As to G35U U43C, the self-cleavage came out at 0.05.

Regarding G35U U43G, the self-cleavage is 0.07.

As for G35U U43A, the self-cleavage is 0.15.

On to G35C G44U, for which the self-cleavage was 0.06.

Regarding G35C G44C, the self-cleavage was determined as 0.05.

Turning to G35C G44A, the self-cleavage amounted to 0.09.

Turning to G33U C42G, the self-cleavage was 0.07.

For the variant G33U C42A, the self-cleavage was 0.13.

In the case of G33U C42U, the self-cleavage was 0.09.

Take G35A C42G: the self-cleavage is 0.04.

For the variant G35A C42A, the self-cleavage is 0.06.

As to G35A C42U, the self-cleavage is 0.09.

For the variant U34A G35U, the self-cleavage is 0.06.

Take U34A G35C: the self-cleavage worked out at 0.13.

As for U34A G35A, the self-cleavage is 0.07.

G36A G44C: the self-cleavage is 0.15.

As for G36A G44A, the self-cleavage was determined as 0.43.

Take G36A G44U: the self-cleavage turned out to be 0.15.

For the variant G36A C45U, the self-cleavage turned out to be 0.8.

Take G36A C45A: the self-cleavage came out at 0.14.

Consider G36A C45G, for which the self-cleavage stood at 0.13.

As to U34A, the self-cleavage worked out at 0.1.

Turning to U34C, the self-cleavage was 0.13.

Consider U34G, for which the self-cleavage was found to be 0.24.

With G35U G36U, the self-cleavage is 0.1.

For the variant G35U G36C, the self-cleavage came out at 0.11.

As to G35U G36A, the self-cleavage amounted to 0.16.

For G36U C42A, the self-cleavage is 0.06.

As to G36U C42G, the self-cleavage is 0.03.

With G36U C42U, the self-cleavage turned out to be 0.06.

Take G35U U38A: the self-cleavage is 0.12.

Take G35U U38C: the self-cleavage amounted to 0.09.

Regarding G35U U38G, the self-cleavage was found to be 0.03.

Turning to U34A C42A, the self-cleavage amounted to 0.05.

Turning to U34A C42U, the self-cleavage amounted to 0.05.

Consider U34A C42G, for which the self-cleavage was determined as 0.04.

Take G33U C37A: the self-cleavage amounted to 0.07.

Regarding G33U C37U, the self-cleavage stood at 0.06.

As for G33U C37G, the self-cleavage amounted to 0.05.

Consider G36C U38G, for which the self-cleavage is 0.02.

With G36C U38A, the self-cleavage is 0.06.

G36C U38C: the self-cleavage worked out at 0.05.

For the variant G36U A41G, the self-cleavage came out at 0.15.

Consider G36U A41U, for which the self-cleavage is 0.1.

Turning to G36U A41C, the self-cleavage amounted to 0.05.

Consider U34A G40C, for which the self-cleavage stood at 0.04.

As for U34A G40A, the self-cleavage was 0.09.

On to U34A G40U, for which the self-cleavage is 0.06.

For G33U U38A, the self-cleavage is 0.08.

For the variant G33U U38C, the self-cleavage came out at 0.08.

On to G33U U38G, for which the self-cleavage stood at 0.04.

On to U34A C45G, for which the self-cleavage turned out to be 0.15.

As to U34A C45A, the self-cleavage was 0.08.

Take U34A C45U: the self-cleavage stood at 0.11.

As for G35U C37U, the self-cleavage was 0.06.

Take G35U C37G: the self-cleavage is 0.05.

On to G35U C37A, for which the self-cleavage stood at 0.23.

As for G36C C46U, the self-cleavage stood at 0.05.

In the case of G36C C46A, the self-cleavage was 0.13.

G36C C46G: the self-cleavage was found to be 0.08.

Turning to G35U G44C, the self-cleavage stood at 0.07.

As to G35U G44A, the self-cleavage worked out at 0.13.

As to G35U G44U, the self-cleavage is 0.11.

As to G36U C45A, the self-cleavage worked out at 0.15.

For G36U C45G, the self-cleavage worked out at 0.12.

For the variant G36U C45U, the self-cleavage was 0.11.

With U34G C42G, the self-cleavage was 0.05.

U34G C42U: the self-cleavage was 0.1.

As to U34G C42A, the self-cleavage was found to be 0.07.

In the case of G36A U38G, the self-cleavage is 0.03.

Regarding G36A U38C, the self-cleavage is 0.12.

G36A U38A: the self-cleavage came to 0.08.

As to G35A G44C, the self-cleavage is 0.07.

As to G35A G44A, the self-cleavage is 0.1.

Turning to G35A G44U, the self-cleavage worked out at 0.09.

G36A C46U: the self-cleavage turned out to be 0.26.

G36A C46A: the self-cleavage worked out at 0.14.

For the variant G36A C46G, the self-cleavage came out at 0.34.
